Results: article PMC8580320 (Science Advances, 2021)

Target: the molecule itself
Test: crystal structure

B1: MtaLonC-S582A (enzyme)
chain: MRLSYEALEWRTPIENSTEPVSLPPPPPFFGQERAREALELAIRGGFHAYLVGPPSLGKHEALLAYLSTQSVETPPDLLYVPLSERKVAVLTLPSGQEIHLAEAVEGLLLEVNRLDELFRQGSFLREKTQLEARFKEAREQQLEALRREAQEAGFALSTNGERLELTGPGPVPAELSARLEEVTLGSLAASAELEVALRRLRRDWALHYLNNRFEPLFQRFPQARAYLEALRARLARYAETGEPLDPAQWRPNLLTSSSSGTPPPIVYEPYATAPRLFGRLDYLVDRGVWSTNVSLIRPGAVHRAQGGYLILDALSLKREGTWEAFKRALRNGQVEPVTEPQAPAGLEVEPFPIQMQVILVGTPEAFEGLEEDPAFSELFRIRAEFSPTLPASPENCTALGGWLLAQGFQLTQGGLTRLYDEARRMAEQRDRMDARLVEIRALAEEAAVLGGGLLTAESVEQAIAAREHRSFLSEEEFLRAVQEGVIRLRTTGRAVGEVNSLVVVEAAPYWGRPARLTARAAPGRDHLISIDREAGLGGQIFHKAVLTLAGYLRSRYIEHGSLPVTISLAFEQNYVSIEGDAAGLAELVAALSAIGNLPLRQDLAVTGAVDQTGKVLAVGAINAKVEGFFRVCKALGLSGTQGVILPEANLANLTLRAEVLEAVRAGQFHIYAVETAEQALEILAGARMEGFRGLQEKIRAGLEAFARLEEGHDKEDREKLAAALEHHHHHH
  stoichiometry N: 6
